Tests used:
[1] = target: SARS-CoV-1 spike protein on pseudovirus (SARS-CoV-1, UniProt P59594 14-1255); assay: cell-based or functional assay
[2] = target: SARS-CoV-2 Wuhan-1 full-length Spike protein on pseudovirus (SARS-CoV-2, UniProt P0DTC2 14-1273); assay: cell-based or functional assay
[3] = target: SARS-CoV-2 spike protein on fully infectious (replication-competent) SARS-CoV-2 virus (SARS-CoV-2, UniProt P0DTC2 14-1273); assay: cell-based or functional assay
[4] = target: SARS-CoV-2 Nucleocapsid (N) protein (SARS-CoV-2, UniProt P0DTC9 1-419)
[5] = target: SARS-CoV-2 spike S2 protein (SARS-CoV-2, UniProt P0DTC2 686-1213)
[6] = target: SARS-CoV-2 Nucleocapsid (N) protein (SARS-CoV-2, UniProt P0DTC9 1-419); remark: listed apart in the source
[7] = target: T1, SARS-CoV-2 spike S2 protein (SARS-CoV-2, UniProt P0DTC2 686-1213); assay: BLI, as in Example 4
T1 construct: domain: S2

| Binder | Pseudovirus Neturalization [1] [µg/mL] | Pseudovirus Neturalization [2] [µg/mL] | Neutralization (Infectious virus; (µg/mL)) [3] [µg/mL] | binding result [7] | other results |
| --- | --- | --- | --- | --- | --- |
| AB-009760 (antibody, V domains shown) VH: EVQLVQSGAEVKKPGESLKISCKGSGYSFTSYWIGWVRQMPGKGLEWMGIIYPGDSDTRYSPSFQGQVTISADKSISTAYLQWSSLKASDTAMYYCARSRSSDYFDYWGQGTLVTVSS VL: not shown | > 50 | 4.1 | 32.8 |  |  |
| AB-009661 (antibody, V domains shown) VH: QVQLVESGGGVVQPGRSLRLSCAASGFTFSSYGMHWVRQAPGKGLEWVAVISYDGSNKYYADSVKGRFTISRDNSKNTLYLQMNSLRAEDTAVYYCAKDYGDYGGMDVWGQGTTVTVSS VL: not shown | > 50 | > 50 | 20.6 |  |  |
| AB-009769 (antibody, V domains shown) VH: EVQLVESGGGLVQPGGSLRLSCAASGFTFSSYWMSWVRQAPGKGLEWVANIKQDGSEKYYVDSVKGRFTISRDNAKNSLYLQMNSLRAEDTAVYYCARSPEVLWFGDPVLDNWFDPWGQGTLVTVSS VL: SYELTQPPSVSVSPGQTARITCSGDALPKQYAYWYQQKPGQAPVLVIYKDSERPSGIPERFSGSSSGTTVTLTISGVQAEDEADYYCQSADSSGTYPVVFGGGTKLTVL | > 50 | > 50 | 24.5 |  |  |
| AB-009615 (antibody, V domains shown) VH: QVQLVESGGGVVQPGRSLRLSCAASGFTFSSYGMHWVRQAPGKGLEWVAVIWYDGSNKYYADSVKGRFTISRDNSKNTLYLQMNSLRAEDTAVYYCAKVGSPYCSGGSCYSGYFDYWGQGTLVTVSS VL: not shown | > 50 | 27.7 | 12.3 |  |  |
| AB-009095 (antibody, V domains shown) VH: EVQLVQSGAEVKKPGESLIISCTGSGYTFATFWITWVRQMPGKGLEWLGRIDPSDSYTNYNPSFQGHVTVSVDRSINTAYLELTSLKASDTAIYYCARQMYNTGWPIPNYSDYWGQGTLVTVSS VL: QSALTQPPSASGSPGQSVTISCAGASTDVGVYNFVSWYQQHPGKAPKLIIFDVNKRPSGVPDRFSGSKSGNTASLTVSGLQAEDEADYYCSSYEVGNNFVFGTGTKVTVL |  |  |  |  | Kd [4]: 0.833 nM; koff [4]: 5.93e-05 s⁻¹; kon [4]: 71100 M⁻¹ s⁻¹; Kd [5]: 0.176 nM; koff [5]: 2.15e-07 s⁻¹; kon [5]: 1220 M⁻¹ s⁻¹ |
| AB-009791 (antibody, V domains shown) VH: QLQLQESGPGLVKPSETLSLTCTVSGGSISSSSYYWGWIRQPPGKGLEWIGSIYYSGSTYYNPSLKSRVTISVDTSKNQFSLKLSSVTAADTAVYYCAREPRRVKQWLVVPYYYMDVWGKGTTVTVSS VL: not shown |  |  |  |  | Kd [6]: 4.61 nM; koff [6]: 8.35e-05 s⁻¹; kon [6]: 18100 M⁻¹ s⁻¹ |
| AB-009613 (antibody, V domains shown) VH: EVQLVESGGGLIQPGGSLRLSCAASGFTVSSNYMSWVRQAPGKGLEWVSVIYSGGSTYYADSVKGRFTISRDNSKNTLYLQMNSLRAEDTAVYYCARDYGDFYFDYWGQGTLVTVSS VL: not shown | > 50 | 1.53 | 3.4 | no binding |  |
| AB-009271 (antibody, V domains shown) VH: EVQLVESGGGLIQPGGSLRLSCAASGFIVSSNYMSWVRQAPGKGLEWVSVIYSGGSTYYADSVKGRFTISRDNSKNTLYLQMNSLRAEDTAVYYCARDYGDFYFDYWGQGTLVTVSS VL: EIVMTQSPATLSVSPGERATLSCRASQSVSSNLAWYQQKPGQAPRLLIYGASTRATGIPARFSGSGSGTEFTLTISSLQSEDFAVYYCQQYYNWPRTFGQGTKVEIK | > 50 | 0.058 | 0.181 | no binding |  |
| AB-009213 (antibody, V domains shown) VH: EVQLVESGGGLVKPGGSLRLSCAASGFTFSSYSMNWVRQAPGKGLEWVSSISSSSSYIYYADSVKGRFTISRDNAKNSLYLQMNSLRAEDTAVYYCARDKLREDGDYDDAFDIWGQGTMVTVSS VL: not shown |  |  |  |  | Kd [4]: 10 nM; koff [4]: 0.00112 s⁻¹; kon [4]: 112000 M⁻¹ s⁻¹ |
| AB-009799 (antibody, V domains shown) VH: QVQLVQSGAEVKKPGASVKVSCKASGYTFTSYDINWVRQATGQGLEWMGWMNPNSGNTGYAQKFQGRVTMTRNTSISTAYMELSSLRSEDTAVYYCARGRLRITIFNRVYYFDYWGQGTLVTVSS VL: not shown |  |  |  |  | Kd [6]: 19.6 nM; koff [6]: 0.000265 s⁻¹; kon [6]: 13600 M⁻¹ s⁻¹ |
| AB-009610 (antibody, V domains shown) VH: QVQLVQSGAEVKKPGSSVKVSCKASGGTFSNYAISWVRQAPGQGLEWMGRIIPILGIANYAQKFQGRVTITADKSTSTAYMELSSLRSEDTAVYYCATTPYYYDSSGYYLDYWGQGTLVTVSS VL: not shown | > 50 | 6.77 | 6.25 | no binding |  |
| AB-009112 (antibody, V domains shown) VH: QVQLVESGGGVVQPGRSLRLSCAASGFTFSSYAMHWVRQAPGKGLEWVAVISYDGSNKYYADSVKGRFTISRDNSKNTLYLQMNSLRAEDTAVYYCASSLVGATKSYYYYYYGMDVWGQGTTVTVSS VL: SYELTQPLSVSVALGQTARITCGGNNIGSKNVHWYQQKPGQAPVLVIYRDSNRPSGIPERFSGSNSGNTATLTISRAQAGDEADYYCQVWDSSSVVFGGGTKLTVL |  |  |  |  | Kd [4]: 32.7 nM |
| AB-009778 (antibody, V domains shown) VH: QLQLQESGPGLVKPSETLSLTCTVSGGSISSSSYYWGWIRQPPGKGLEWIGSIYYSGSTYYNPSLKSRVTISVDTSKNQFSLKLSSVTAADTAVYYCARQFRRWLQLGPSYFDYWGQGTLVTVSS VL: not shown |  |  |  |  | Kd [6]: 48.5 nM; koff [6]: 0.000866 s⁻¹; kon [6]: 17800 M⁻¹ s⁻¹ |
| AB-009270 (antibody, V domains shown) VH: QMQLVQSGPEVKKPGTSVKVSCKASGFTFTSSAMQWVRQARGQRLEWIGWIVVGSGNTNYAQKFQERVTITRDMSTSTAYMELSSLRSEDTAVYYCAVNYCSSTSCYDAFDIWGQGTMVTVSS VL: not shown | > 50 | 0.065 | 1.37 | no binding |  |
| AB-010021 (antibody, V domains shown, also called AB-0010021) VH: QMQLVQSGPEVKKPGTSVKVSCKASGFTFTSSAVQWVRQARGQRLEWIGWIVVGSGNTNYAQKFQERVTITRDMSTSTAYMELSSLRSEDTAVYYCAAVYCSGGSCLDAFDIWGQGTMVTVSS VL: not shown | > 50 | 1.56 |  | no binding |  |
| AB-010020 (antibody, V domains shown) VH: QMQLVQSGPEVKKPGTSVKVSCKASGFTFTSSAVQWVRQARGQRLEWIGWIVVGSGNTNYAQKFQERVTITRDMSTSTAYMELSSLRSEDTAVYYCAAPACSSTSCYDGFDIWGQGTMVTVSS VL: not shown | > 50 | 0.004 |  | no binding |  |
| AB-009620 (antibody, V domains shown) VH: QITLKESGPTLVKPTQTLTLTCTFSGFSLSTSGVGVGWIRQPPGKALEWLALIYWDDDKRYSPSLKSRLTITKDTSKNQVVLTMTNMDPVDTATYYCAHHEVATVFDYWGQGTLVTVSS VL: QSALTQPASVSGSPGQSITISCTGTSSDVGAYNYVSWYQQHPGKAPKLMIYEVSNRPSGVSNRFSGSKSGNTASLTISGLQAEDEADYYCSSYTSSSTVFGGGTKLTVL | > 50 | 1.04 | 13.3 | no binding |  |
| AB-009119 (antibody, V domains shown) VH: EVQLVESGGGLVQPGGSLKLSCAASGFTFSGSAMHWVRQASGKGLEWVGRIRSKANSYATAYAASVKGRFTISRDDSKNTAYLQMNSLKTEDTAVYYCTRHGTTVNWGQGTLVTVSS VL: not shown |  |  |  |  | Kd [4]: 7.35 nM; koff [4]: 0.000647 s⁻¹; kon [4]: 88000 M⁻¹ s⁻¹; Kd [5]: 0.0583 nM; koff [5]: 2.56e-07 s⁻¹; kon [5]: 4390 M⁻¹ s⁻¹ |
| AB-009734 (antibody, V domains shown) VH: QVHLVQSGAEVKTPGASVRVSCKASGYTFTSHYMHWVRQAPGQGLEWMGLINPSGSGTAYPQHFQGRVTMTRDTSTTTDYMDLSSLRSEDTAMYFCARMERSGAFDLWGQGTMVTVSS VL: EIVLTQSPGTLSLSPGERATLSCRASQTISSRYLAWYYQKPGQAPRLLIQGSSIRATGIPDRFSGSGSGTDFTLTISRLEPEDFAVYYCQHYGSSPPMYTFGQGTKLEIK | > 50 | 42.4 | 21.4 |  |  |
